Reference: patent US20210283221A1

Target: human complement C5 with an unidentified amino acid substitution at Arg885 (in serum of the Example 4 patient) (human), P01031
Assay: cell-based or functional assay

B1: Coversin protein, Q5YD59 19-168 (protein)
chain: DSESDCTGSEPVDAFQAFSEGKEAYVLVRSTDPKARDCLKGEPAGEKQDNTLPVMMTFKNGTDWASTDWTFTLDGAKVTATLGNLTQNREVVYDSQSHHCHVDKVEKEVPDYEMWMLDAGGLEVEVECCRQKLEELASGRNQMYPHLKDC
  residual CH50 (U Eq/ml) as % of baseline in serum of the Example 4 patient at Coversin approximately 15 ug/ml (% of baseline CH50): < 5
